{
  "source": "patent US20090215081",
  "proteins": {"B1": {"name": "HA-TNIK K54R, ATP binding site mutant of human TNIK expressed from pCIneo-HA-TNIK K54R (protein)", "chain": "MASDSPARSLDEIDLSALRDPAGIFELVELVGNGTYGQVYKGRHVKTGQLAAIRVMDVTGDEEEEIKQEINMLKKYSHHRNIATYYGAFIKKNPPGMDDQLWLVMEFCGAGSVTDLIKNTKGNTLKEEWIAYICREILRGLSHLHQHKVIHRDIKGQNVLLTENAEVKLVDFGVSAQLDRTVGRRNTFIGTPYWMAPEVIACDENPDATYDFKSDLWSLGITAIEMAEGAPPLCDMHPMRALFLIPRNPAPRLKSKKWSKKFQSFIESCLVKNHSQRPATEQLMKHPFIRDQPNERQVRIQLKDHIDRTKKKRGEKDETEYEYSGSEEEEEENDSGEPSSILNLPGESTLRRDFLRLQLANKERSEALRRQQLEQQQRENEEHKRQLLAERQKRIEEQKEQRRRLEEQQRREKELRKQQEREQRRHYEEQMRREEERRRAEHEQEYIRRQLEEEQRQLEILQQQLLHEQALLLEYKRKQLEEQRQAERLQRQLKQERDYLVSLQHQRQEQRPVEKKPLYHYKEGMSPSEKPAWAKEVEERSRLNRQSSPAMPHKVANRISDPNLPPRSESFSISGVQPARTPPMLRPVDPQIPHLVAVKSQGPALTASQSVHEQPTKGLSGFQEALNVTSHRVEMPRQNSDPTSENPPLPTRIEKFDRSSWLRQEEDIPPKVPQRTTSISPALARKNSPGNGSALGPRLGSQPIRASNPDLRRTEPILESPLQRTSSGSSSSSSTPSSQPSSQGGSQPGSQAGSSERTRVRANSKSEGSPVLPHEPAKVKPEESRDITRPSRPASYKKAIDEDLTALAKELRELRIEETNRPMKKVTDYSSSSEESESSEEEEEDGESETHDGTVAVSDIPRLIPTGAPGSNEQYNVGMVGTHGLETSHADSFSGSISREGTLMIRETSGEKKRSGHSDSNGFAGHINLPDLVQQSHSPAGTPTEGLGRVSTHSQEMDSGTEYGMGSSTKASFTPFVDPRVYQTSPTDEDEEDEESSAAALFTSELLRQEQAKLNEARKISVVNVNPTNIRPHSDTPEIRKYKKRFNSEILCAALWGVNLLVGTENGLMLLDRSGQGKVYNLINRRRFQQMDVLEGLNVLVTISGKKNKLRVYYLSWLRNRILHNDPEVEKKQGWITVGDLEGCIHYKVVKYERIKFLVIALKNAVEIYAWAPKPYHKFMAFKSFADLQHKPLLVDLTVEEGQRLKVIFGSHTGFHVIDVDSGNSYDIYIPSHIQGNITPHAIVILPKTDGMEMLVCYEDEGVYVNTYGRITKDVVLQWGEMPTSVAYIHSNQIMGWGEKAIEIRSVETGHLDGVFMHKRAQRLKFLCERNDKVFFASVRSGGSSQVFFMTLNRNSMMNW"}},
  "biological_target": "T1, FLAG-TCF4, full length human TCF4 expressed from pFLAG-CMV-4, Q9NQB0",
  "T1 chain": "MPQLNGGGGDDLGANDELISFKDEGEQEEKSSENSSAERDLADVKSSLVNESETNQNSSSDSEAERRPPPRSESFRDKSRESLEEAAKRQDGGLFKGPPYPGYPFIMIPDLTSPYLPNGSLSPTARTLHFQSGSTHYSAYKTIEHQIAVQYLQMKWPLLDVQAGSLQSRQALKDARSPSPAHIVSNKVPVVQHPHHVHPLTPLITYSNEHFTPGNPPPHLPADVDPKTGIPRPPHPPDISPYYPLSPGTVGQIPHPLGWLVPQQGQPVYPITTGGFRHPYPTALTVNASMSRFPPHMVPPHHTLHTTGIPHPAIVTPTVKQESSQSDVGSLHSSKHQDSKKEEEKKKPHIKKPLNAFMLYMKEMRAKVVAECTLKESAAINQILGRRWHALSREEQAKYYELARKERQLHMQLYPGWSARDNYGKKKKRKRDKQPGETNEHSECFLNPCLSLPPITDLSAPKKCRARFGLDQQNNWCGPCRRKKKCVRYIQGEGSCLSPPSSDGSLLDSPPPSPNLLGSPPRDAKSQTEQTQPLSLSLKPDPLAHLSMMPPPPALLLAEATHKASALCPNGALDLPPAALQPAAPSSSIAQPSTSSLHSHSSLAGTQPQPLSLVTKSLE",
  "data": [
    {"protein": "B1", "values": [
      {"measurement": "serine phosphorylation of TCF4 (immunoprecipitation with anti-TCF4, immunoblot with anti-phospho-serine antibody)", "result": "significant serine phosphorylation was not observed compared with control"}
    ]}
  ]
}
